The data set can be described thus: yeast display, Sf9 membrane polyspecificity reagent, FACS + sequencing; frameworks hold sequencing errors. The method in brief:
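Galactose-induced (36–48 hours) yeast carrying a synthetic nanobody display library were exposed to 10% biotinylated, detergent-solubilized Sf9 membrane reagent at 4 °C for 1 hour. FACS followed streptavidin microbead enrichment, using low and high (top ~1%) gates for expression (anti-HA) and reagent binding (streptavidin). Colony PCR, MiSeq 2 × 250 sequencing and CDR-length filtering followed. Labels for polyreactivity reflect the gate of origin.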
With “QDQLVESGGGLVQAGGSLRLSCAASAIIFYYYAMGSYRQAPGKERELVAAISSSGGRTRYADSVKGRVTISRDNAKNTVYLLMNRLKPEDTAVYYCAAEFIRGYGESYDYWGQGTQVTVSS”, the “polyreactivity (PSR sort gate)” value is listed as “low polyreactivity”.

For the sequence “QDQLVESGGGLVQAGGSLRLSCAASALTFVRYAMGWYRQAPGKERELVAAISSGGSTNYADSVKGSFTISRDNAKNTVYLQMNSLKPEDSAVYYCAAVRYRYPHTMYYWGLGTQVTVSS”, the “polyreactivity (PSR sort gate)” value is listed as “high polyreactivity”. As for “QDQLVESGGGLVQAGGSLRLSCAASCFTSLIYAMGWYRQAPGKERELVASITWGGGSTYADSVKGRFTISRDNAKNTVSLLMNSLKPEDTAVYYCASLYWWYPFNYWGQGTQVTVSS”, the “polyreactivity (PSR sort gate)” value is listed as “low polyreactivity”. Take “QDQLVESGGGLVQAGGSLRLSCAASGFIFNKNAMGWYRQAPGKERELVAAITFGGGTTYYADSVKGRFTISRDNAKNTVYLQMNSLKPEDTAVYYCAKRYWRHPVFYLYDYWGQGTQVTVSS”: the “polyreactivity (PSR sort gate)” value is “high polyreactivity”. With “QDQLVESGGGLVQAGGSLRLSCAASGFIFRFNARGWYRQAPGKEREVVAVIRWSSGSTYYADSVKGRFTISRDNAKNTVYLQMNSLKPEDTAVYYCAAVDDDYSIVWYYYWGQGTQVTVSS”, the “polyreactivity (PSR sort gate)” value was “low polyreactivity”.

With “QDQLVESGGGLVQAGGSLRLSCAASGFIFYDNAMGWYRQAPGKERELVAAISAIGGSTYYADSVKGRFTISRDNAKNTVYLQMNSLKPEDTAVYYCAVPEILDPKYQNDYWGQGTQVTVSS”, the “polyreactivity (PSR sort gate)” value was “low polyreactivity”. Take “QDQLVESGGGLVQAGGSLRLSCAASGFMFSYYAMGWYRQAPGKARELVAAMTSNGGITYYADSVKGRITISRDKAKNTVYLQMNSLKPEDTAVYYCNAYYTSTSYDYWGQGTQVTVSS”: the “polyreactivity (PSR sort gate)” value was “high polyreactivity”. To “QDQLVESGGGLVQAGGSLRLSCAASGFNFRYYAMGWYRQAPGKERELVAAISSGGRTSYADSVKGRFTISRDNAKNTVYLQMNSLKPEDTAVYYCAADRWRGLFYYGNDYWGQGTQVTVSS” belongs “high polyreactivity”; to “QDQLVESGGGLVQAGGSLRLSCAASGFTFQYYAMGWYRQAPGKERELVAAISRRGGRTDYADSVKGRFTISRDNAKNTVYLQINSLKPEDTEVYYCARDPGAFEYSGQGTQVTVSS”, “high polyreactivity”. To “QDQLVESGGGLVQAGGSLRLSCAASGFTFRSNAMGWYRQAPGKERELVAAISRTGGSTYYADSVKGRFTISRDNAKNTVYLQMNSLKPEETAVYYCNTVYGKSHYGQAMDSWGQGTQVTVSS” belongs “high polyreactivity”.

As for “QDQLVESGGGLVQAGGSLRLSCAASGFTFSYYTMGWYRHAPGKERELVAAISSTGVSTYYADSVKGRFTISRDNAKNTVYLQMNSLKPEDTAVYYCAADYYGVYEYYYWGQGTQVTVSS”, the “polyreactivity (PSR sort gate)” value is listed as “high polyreactivity”. Under “QDQLVESGGGLVQAGGSLRLSCAASGFTFYRNAMGWYRQAPGKERELVAAISRGGRTYYADSVKGRFTISRDNAKNTVYLQMNSLNPEDTAVYYCAVGYSGYVSSMDYWGQGTQVTVSS” stands “high polyreactivity”; under “QDQLVESGGGLVQAGGSLRLSCAASGGIIVSYAMGWYRQAPGKEMQLVAAITSGGGTSYSDSVKGRFTISRDNAKNTVYLQMNSLKPEDTAVYYCNADGYLAERFVIRLDEYRHYDYWGQGTQVTVSS”, “low polyreactivity”; under “QDQLVESGGGLVQAGGSLRLSCAASGIIFDDNTLGWYRQAPGKERELVAAISSSGGSTYYADSVKGRFSISRDNAKNTVYLQMNSLKPEDTAVYYCAAAVYYTYPYIVYRNYPEFDYWGQGTQVTVSS”, “low polyreactivity”.

Turning to “QDQLVESGGGLVQAGGSLRLSCAASGIIFSIYAMGWYRQAPGKERELVAVISRSSGSTYYADSVKGRFTISRDNAKNSVYLQMNSLKPEDTAVYYCAARKNRAYGYWGQGTQVTVSS”, the “polyreactivity (PSR sort gate)” value is “high polyreactivity”. To “QDQLVESGGGLVQAGGSLRLSCAASGIISYKNVMGWYRQAPGKERELDAAITSGGSTNYADSVKGRFTISRDNAKNTVYLQMNSLKPEDTAVYYCAARYYGSYGKQPRARYGYWGQGTQVTVSS” belongs “high polyreactivity”; to “QDQLVESGGGLVQAGGSLRLSCAASGITFAGNAMGWYRQAPGKERELVAAISGSGGSTSYADSVKGRFTISRDNAKNTVYLQMNSLKPEDTAVYYCAAASRLYNWHALFGSWGQGTQVTVSS”, “low polyreactivity”; to “QDQLVESGGGLVQAGGSLRLSCAASGITFFYYAMGWYRQAPGKERELVAAINWSGRTYYADSVKGRFTISRDNAKNTVYLQINSLKPEDTAVYYCAAVTYGPGVSVMDYWGQGTQVTVSS”, “low polyreactivity”. To “QDQLVESGGGLVQAGGSLRLSCAASGITFNAYVMGWYRQAPGKERELVAAISVSDDYTYYADSVKGRFTISRDNAKNTVYLQINSLKPEDTAVYYCAAEWWDVIAPYDYWGQGTQVTVSS” belongs “low polyreactivity”. Under “QDQLVESGGGLVQAGGSLRLSCAASGITFWYYAMGWYRQAPGKERELVAAISQSGGSTFYADSVKGRFTISRDNAKNTVYLQMNRLKPEVTAVYYCATGFFRYLAKFKTYRYDYWGQGTQVTVSS” stands “high polyreactivity”; under “QDQLVESGGGLVQAGGSLRLSCAASGITIWRYAMGWYRQAPGKERELVAAISWSGSRTYYADSVKGRFTISRDNAKNTVYLQMNSLKPEDTAVYYCAAAFDLWITITGFDYWGQGTQVTVSS”, “low polyreactivity”; under “QDQLVESGGGLVQAGGSLRLSCAASGLIFARYAMGWYIQAPGKERELVAVISGRGGGTYYADSVKGRFTISRDNAKNTVYLQMNSLKPEDTAVYYCNKYGYKGGVGYDYWGQGTQVTVSS”, “high polyreactivity”. In the case of “QDQLVESGGGLVQAGGSLRLSCAASGLNFRFYAMGWYRTATGKERELVAAISSRGGSTYYAHSVKGRFTISRDNSKNTFYLQMISLKPEDTWVYYCAADYGDEYEYCGQGTQVTVSS”, the “polyreactivity (PSR sort gate)” value was “high polyreactivity”. Under “QDQLVESGGGLVQAGGSLRLSCAASGLTFDWYTMGWYRQAPGKERELVATINSGGSTDYADSVKGRFTISRDNAKNTVYLQMNSLKPEDTAVYYCNAEYGYSGVGDDYWGQGTQVTVSS” stands “low polyreactivity”. Under “QDQLVESGGGLVQAGGSLRLSCAASGLTFKYYTMGWYRQAAGKERELVAYISRTGRTSYADSVKGRFTISRDNAKNTVYLQMNSLNPEDTGVYYCNADFYVSGYSLFDSIYDYWGQGTQVTVSS” stands “high polyreactivity”; under “QDQLVESGGGLVQAGGSLRLSCAASGLTFQSYAMGWYRQAPGKERELVATISNGSSTYYADSVKGRFTISRDNAKNTVYLQMNSLKPEDTAVYYFAKDYYYSRNPLYGLDYWGQGTQVTVSS”, “low polyreactivity”; under “QDQLVESGGGLVQAGGSLRLSCAASGLTFQYNTMGWYRQAPGKERELVARINWGGDSTYYADSVKGRFTISRDNAKNTVYLQLYSLKPEVTAVYYCAAPGYSGRYGYYTYYLYVYWGQGTQVTVSS”, “low polyreactivity”. Under “QDQLVESGGGLVQAGGSLRLSCAASGLTYRLNAMGWYRQAPGKEREFVAAISAIGDRTYYADSVKGRFTISRDNAKNTVYLQMNSLKPEDTSVYYCNVTPRSAQVRIGNYWGQGTQVTVSS” stands “high polyreactivity”; under “QDQLVESGGGLVQAGGSLRLSCAASGNNYWTNAMGWYRQAPGKERELVAAISWSGDSTYYADSVKGRFTISRDNAKNTVYLQLNSLKPEDTAVYYCAVLDVYRYRMDYWGQGTQVTVSS”, “low polyreactivity”; under “QDQLVESGGGLVQAGGSLRLSCAASGNTFTVNAMGWYRQAPGKERELVATINSTGGSTYYADSVKGRFTISRDNAKNTVYLQMNSLKPEDPAVYYAGSSNSFAFGGYDYWGQGTQVTVSS”, “low polyreactivity”. As to “QDQLVESGGGLVQAGGSLRLSCAASGPIFYSNAMGWYRQAPGKERELVAAISSGDGITYYADSVKGRFTISRDNAKNTVYLQMNSLKPEDTAVYYCAADGYYDYPYSGDYWGQGTQVTVSS”, the “polyreactivity (PSR sort gate)” value is on record as “high polyreactivity”. To “QDQLVESGGGLVQAGGSLRLSCAASGRIFAGYAMGWYRQAPGKERELVASIRSSGSTYYADSVKGRFTISRDNAKNTVYLQMNSLKPEDTAVYYCAARSGYFRSRFDYWGQCTQVTVSS” belongs “high polyreactivity”; to “QDQLVESGGGLVQAGGSLRLSCAASGRIFFTNAMGWYRQAPGKERELVASIDDTGSTNYADSVKGRFTISRDNAKNTVYLQMNSLKPEDTATSTQGDYWGQGTQVTVSS”, “low polyreactivity”; to “QDQLVESGGGLVQAGGSLRLSCAASGRIFKSYAMGWYRQAPGKERELVAAIGSRTYYADSVKGRFTISRDNAKNTVYLQMNSLKPEDTAVYYCAVEVWGNSKRYYYWGQGTQVTVSS”, “high polyreactivity”. As to “QDQLVESGGGLVQAGGSLRLSCAASGRIFPYYAMGWYRQAPGTERELVAAINSGGSTYYADSVKGRFPISRDNAKNTVYLQMNSLKPEDTAVNYCNADVLYEDGFFWDDYWGQGTQVTVSS”, the “polyreactivity (PSR sort gate)” value is “low polyreactivity”. As to “QDQLVESGGGLVQAGGSLRLSCAASGRIFRYYTRGWYRQAPGKERELVAAIRWSGSTTYYADSVKGRFTISRDYAKNTVYLLMNSLKPEDTAVYYCDARWSYPRWEFDYWGQGTQVTVSS”, the “polyreactivity (PSR sort gate)” value is given as “high polyreactivity”. To “QDQLVESGGGLVQAGGSLRLSCAASGRIFTGNAMGWYRQAHGKERELVAAISASGSSTYYADSVKGRFTISRDNAKNTVYLQMNSLKPEDTAVYYCAADGWYGYYYWGQGTLVTVSS” belongs “high polyreactivity”; to “QDQLVESGGGLVQAGGSLRLSCAASGRIFTGNVMGWYRQAPGKERELVAAITYRGGSTYYADSVKGRFTISRDNAKNTVFLQMNSLKPEDTAVYYCNTGWDPYGYDYWGQGTQVTVSS”, “low polyreactivity”; to “QDQLVESGGGLVQAGGSLRLSCAASGRIFVYYVMGLYRQAPGKERELVAAITYSGGSTYYADSVKGRFTISRDNAKNTVYLQMNSLKPEDTAVYYCNNVDAFGIVRLYYWGQGTQVTVSS”, “low polyreactivity”. Turning to “QDQLVESGGGLVQAGGSLRLSCAASGRIFYPYVMGWYRQAPGKERELVAAISDSTGSTYYADSVKGRFTISRDNAKNTVYLQMNSLKPEDTAVYYWGQGTQVTVSS”, the “polyreactivity (PSR sort gate)” value is on record as “low polyreactivity”. For the sequence “QDQLVESGGGLVQAGGSLRLSCAASGRIFYTNGMGWYRQAPGKERELVAAITYSGGNTFYADSVKGRFTISRDNAKNTVYLQMNSLKPEDTAVYYCAATFTYLGYWYDYWGQGTQVTVSS”, the “polyreactivity (PSR sort gate)” value is on record as “low polyreactivity”.

For the origin of these results see the nanobody polyreactivity screen of Harvey et al. (2022).
